Source: article PMC5986797, “Laminin heparin-binding peptides bind to several growth factors and enhance diabetic wound healing” (Nature Communications, 2018)

Assays:
Design in all cases: species or system human
Details in all cases: 1 µg/mL LG domain coated; 1 μg/mL GF; vs BSA-coated wells; n = 4
VEGF-A121 = assay: ELISA: VEGF-A121 binding to laminin LG domain / laminin peptide
Method: (§1) ELISA tests were performed as described above. In brief, ELISA plates were coated with 1 μg/mL of laminin alpha 3 LG domain recombinant protein, laminin alpha 4 LG domain recombinant protein (R&D Systems), laminin alpha 5 LG domain recombinant protein (LD BioPharma), or laminin peptide (sequences are described in Supplementary Table 1, chemically synthesized by Genscript) in PBS for 2 h at 37 °C. A concentration of 1 μg/mL of BSA served as non-binding protein control. After blocking with 2% BSA PBS-0.05% Tween 20 (PBS-T) solution, 1 μg/mL of the recombinant human proteins (VEGF-A121, VEGF-A165, PlGF-1, PlGF-2, PDGF-BB, or FGF-2) or 10 μg/mL of biotinylated heparin (Sigma-Aldrich) were added. Bound GF was detected with biotinylated antibodies for human VEGF-A, PlGF, PDGF-BB (R&D Systems, Catalog No. DY220, 1:180 dilution), or FGF-2 (R&D Systems). The antibodies were detected by streptavidin-HRP (R&D Systems).

PlGF-2 = assay: ELISA: PlGF-2 binding to laminin LG domain / laminin peptide
Method: as §1

PDGF-BB = assay: ELISA: PDGF-BB binding to laminin LG domain / laminin peptide
Method: as §1

VEGF-A165 = assay: ELISA: VEGF-A165 binding to laminin LG domain / laminin peptide
Method: as §1, with “ELISA plates were coated with 1 μg/mL of laminin alpha 3 LG domain” left out

FGF-2 = assay: ELISA: FGF-2 binding to laminin LG domain / laminin peptide
Method: as §1

PlGF-1 = assay: ELISA: PlGF-1 binding to laminin LG domain / laminin peptide
Method: as §1

B1: LAMA5_3026–3482: laminin alpha 5 LG domain recombinant protein (LD BioPharma) (protein)
chain: AIQVFLLGGSRKRVLVRVERATVYSVEQDNDLELADAYYLGGVPPDQLPPSLRRLFPTGGSVRGCVKGIKALGKYVDLKRLNTTGVSAGCTADLLVGRAMTFHGHGFLRLALSNVAPLTGNVYSGFGFHSAQDSALLYYRASPDGLCQVSLQQGRVSLQLLRTEVKTQAGFADGAPHYVAFYSNATGVWLYVDDQLQQMKPHRGPPPELQPQPEGPPRLLLGGLPESGTIYNFSGCISNVFVQRLLGPQRVFDLQQNLGSVNVSTGCAPALQAQTPGLGPRGLQATARKASRRSRQPARHPACMLPPHLRTTRDSYQFGGSLSSHLEFVGILARHRNWPSLSMHVLPRSSRGLLLFTARLRPGSPSLALFLSNGHFVAQMEGLGTRLRAQSRQRSRPGRWHKVSVRWEKNRILLVTDGARAWSQEGPHRQHQGAEHPQPHTLFVGGLPASSHSSKLP
binding to VEGF-A121 (ELISA), recombinant LG domains (VEGF-A121): did not show any binding | binding to PlGF-2 (ELISA), recombinant LG domains (PlGF-2): bound | binding to PDGF-BB (ELISA), recombinant LG domains (PDGF-BB): bound | binding to VEGF-A165 (ELISA), recombinant LG domains (VEGF-A165): bound | binding to FGF-2 (ELISA), recombinant LG domains (FGF-2): bound | binding to PlGF-1 (ELISA), recombinant LG domains (PlGF-1): did not show any binding
